Measurements: US20240174741A1 (IMMUNOME, published 2024)

Key:
[1] = target: T1, human IL-36R-Fc (human, UniProt Q9HB29 20-335, limits assumed); assay: MSD plate assay, IL-38 on plate-bound IL-36R-Fc, detected with biotinylated anti-IL-38 clone H127C
T1 construct: Bought reagent
T1 sequence (looked up): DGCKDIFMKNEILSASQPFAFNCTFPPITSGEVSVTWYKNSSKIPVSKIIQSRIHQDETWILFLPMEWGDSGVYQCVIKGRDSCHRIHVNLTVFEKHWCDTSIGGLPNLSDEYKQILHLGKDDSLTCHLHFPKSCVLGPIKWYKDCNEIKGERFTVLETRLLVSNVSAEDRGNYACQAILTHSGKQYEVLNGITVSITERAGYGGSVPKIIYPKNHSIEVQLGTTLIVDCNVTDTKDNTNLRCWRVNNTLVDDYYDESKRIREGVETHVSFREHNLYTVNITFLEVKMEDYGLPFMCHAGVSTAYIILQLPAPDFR
Description: (§1) Neutralization of human IL-38 binding to IL1RAPL1 or IL-36R. Human IL1RAPL1-Fc (Sino Biological, #10177-H02H) and human IL-36R-Fc (R&D Systems) were diluted in coating Buffer (50 mM Carbonate-Bicarbonate Buffer, pH 9.4) at final concentration of 0.5 μg/mL and coated on MSD high bind plates (MSD) for approximately two hours at RT. Recombinant human IL-38 (Adipogen) was diluted in assay Diluent (1% BSA, 0.1% Tween 20, in 1×PBS). For antibody testing, anti-IL-38 antibodies were pre-incubated with IL-38 for approximately one hour at RT. IL-38 or antibody-IL-38 mixture was transferred to pre-coated MSD plates and incubated for approximately two hours at RT. After washing, the MSD plate was incubated with biotinylated mouse anti-human IL-38 (clone H127C, Thermo Fisher) at final concentration of 100 ng/mL and Sulfo-Tag-Streptavidin (MSD) at final concentration of 100 ng/mL for 1 hour at RT. Binding of IL-38 to plate-bound IL1RAPL1-Fc or human IL-36R-Fc was detected using the Meso Sector S 600 plate reader. Data are plotted using GraphPad Prism version 9.0.1. Dose response curves were fitted with “[Inhibitor] vs. response—Variable slope (four parameters)” method.

[2] = target: T2, Human IL1RAPL1-Fc (human, UniProt Q9NZN1 19-357, limits assumed); assay: MSD plate assay, IL-38 on plate-bound IL1RAPL1-Fc, detected with biotinylated anti-IL-38 clone H127C
T2 construct: Bought reagent
T2 sequence (looked up): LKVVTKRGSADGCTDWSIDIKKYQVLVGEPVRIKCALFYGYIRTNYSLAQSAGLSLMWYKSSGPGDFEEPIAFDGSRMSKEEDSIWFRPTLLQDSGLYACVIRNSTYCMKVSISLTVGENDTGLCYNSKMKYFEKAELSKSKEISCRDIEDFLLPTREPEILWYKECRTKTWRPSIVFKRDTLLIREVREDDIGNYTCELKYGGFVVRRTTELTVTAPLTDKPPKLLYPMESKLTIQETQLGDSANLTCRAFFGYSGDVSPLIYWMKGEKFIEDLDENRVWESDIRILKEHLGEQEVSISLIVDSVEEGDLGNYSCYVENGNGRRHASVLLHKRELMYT
Description: as §1

B1: human interleukin-38 (IL-38) (ligand, UniProt Q8WWZ1 1-152, looked up)
chain: MCSLPMARYYIIKYADQKALYTRDGQLLVGDPVADNCCAEKICILPNRGLARTKVPIFLGIQGGSRCLACVETEEGPSLQLEDVNIEELYKGGEEATRFTFFQSSSGSAFRLEAAAWPGWFLCGPAEPQQPVQLTKESEPSARTKFYFEQSW
notes: One entry is used for all sources of human IL-38; The Adipogen protein is called full length; also called IL1F10/IL38; IL1F10
Q: Does B1 bind [1]?
A: binds

Q: Does B1 bind [2]?
A: binds
